Paper PMC6219519

Legend:
[1] = target: (H3-H4)2 tetramer (wild type Xenopus laevis recombinant histones) (Xenopus laevis) (UniProt P84233); assay: FRET or BRET; single-molecule FRET with multi-parameter fluorescence detection, dynPDA and trace analysis, global four-state kinetic model; IβIα-wt nucleosomes on 170 bp Widom 601 DNA (dyes on the DNA), 20 pM labelled, total concentration varied with unlabelled nucleosomes; 150 mM NaCl, TE buffer pH 7.5, 1 mM ascorbic acid, 0.01% Nonidet P40; hexasome and tetramer stand on the DNA
[2] = target: hexasome: (H3-H4)2 tetramer with one H2A-H2B dimer on 170 bp Widom 601 DNA (Xenopus laevis) (UniProt P84233); assay: as above

Kd [1]: > 2 pM
relaxation time tR of hexasome/tetrasome exchange (estimated for [H2A-H2B] ≈10 pM) [1]: > 10000 s
Kd [2]: 39 pM
relaxation time tR of octasome/hexasome exchange (estimated for [H2A-H2B] ≈10 pM) [2]: < 300 s
Substance: H2A-H2B dimer (wild type Xenopus laevis recombinant histones) (from UniProt P06897 2-120; P02281 2-126) (complex)
